From article PMC5538626 (EMBO Reports, 2017) come the findings set out here.

Ends that are not written are not given here.

The Kd is the constant that tells how readily two partners part at equilibrium.

What all share (settings): both partners purified
The target of one assay is T1, 6xHis‐tagged GABARAP‐L2 (human, UniProt P60520 1-117).
T1 construct: GABARAP-L2/GATE-16, human; also called His6‐GABARAP‐L2; GATE‐16; source: E. coli, isolated
As to the kind of experiment: ELISA; called peptide array: biotinylated peptides immobilised on streptavidin-coated 96-well plates; 1 μM His6-mATG8 in PBS, 0.1% Tween-20, 1% BSA, 1 h, 8°C; anti-His-HRP, TMB, absorbance at 450 nm.

A further assay deals with 6xHis‐tagged LC3B (human, UniProt Q9GZQ8 1-120). Described as above.
The next assay deals with T2, 6xHis‐tagged LC3C (human, UniProt Q9BXW4 1-126).
T2 construct: LC3C, human; also called His6‐LC3C; source: E. coli, isolated
The assay is described as above.

In the next assay the target is T3, 6xHis‐tagged GABARAP‐L1 (human, UniProt Q9H0R8 1-117).
T3 construct: GABARAP-L1, human; also called His6‐GABARAP‐L1; source: E. coli, isolated
The assay is described as above.

The next assay has as its target T4, 6xHis‐tagged LC3A (human, UniProt Q9H492 1-121).
T4 construct: LC3A (MAP1LC3A), human; also called His6‐LC3A; MAP1LC3A; source: E. coli, isolated
The assay is described as above.

The target in another assay is T5, 6xHis‐tagged GABARAP (human, UniProt O95166 1-117).
T5 construct: GABARAP, human; also called His6‐GABARAP; source: E. coli, isolated
Described as above.

Assay [1] has as its target T6, GABARAP (for ITC and NMR) (human, UniProt O95166 1-117).
T6 construct: GABARAP, human; source: E. coli NEB T7 Express, purified
As to the kind of experiment: ITC; peptide 0.4 mM titrated into 0.020 mM LC3/GABARAP protein in 26 steps, 25°C; 50 mM Na2HPO4, 100 mM NaCl, pH 7.0; one-site model.

T6 sequence (O95166 whole entry): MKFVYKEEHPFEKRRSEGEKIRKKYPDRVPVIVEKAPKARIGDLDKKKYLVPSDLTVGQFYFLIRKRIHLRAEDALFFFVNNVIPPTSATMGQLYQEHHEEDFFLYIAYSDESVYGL
T5 sequence (O95166 whole entry): as above
T2 sequence (Q9BXW4 1-126): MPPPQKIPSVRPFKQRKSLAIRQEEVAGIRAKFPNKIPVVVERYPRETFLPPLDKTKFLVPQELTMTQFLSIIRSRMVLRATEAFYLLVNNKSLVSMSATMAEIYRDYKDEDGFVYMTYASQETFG
T1 sequence (P60520 whole entry): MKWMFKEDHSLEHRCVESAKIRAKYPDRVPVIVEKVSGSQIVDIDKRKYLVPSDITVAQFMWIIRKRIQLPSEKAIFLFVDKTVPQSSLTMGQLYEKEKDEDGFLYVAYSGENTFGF
T3 sequence (Q9H0R8 whole entry, looked up): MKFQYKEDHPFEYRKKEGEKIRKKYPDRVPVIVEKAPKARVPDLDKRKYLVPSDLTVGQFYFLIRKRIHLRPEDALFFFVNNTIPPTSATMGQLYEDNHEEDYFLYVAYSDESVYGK

B1: PLEKHM1‐LIR N637I peptide (biotinylated 9-mer) (peptide, UniProt Q9Y4G2 632-640, looked up)
peptide: EDEWVIVQY
modifications: also: biotinylated
notes: PLEKHM1 LIR; source: bought: JPT (biotinylated peptide)
As for B1, the binding result in the assay with 6xHis‐tagged GABARAP‐L2, in the assay with 6xHis‐tagged LC3B, in the assay with 6xHis‐tagged LC3C, with 6xHis‐tagged GABARAP‐L1, with 6xHis‐tagged LC3A and with 6xHis‐tagged GABARAP was “binds” in each case.

B2: PLEKHM1‐LIR W635A peptide (ITC) (peptide)
chain: PQQEDEAVNVQYPD
modifications: limits taken from the WT ITC peptide (P629-D642); N-terminal GAMG cloning remnant, printed only for WT, left out
In the case of B2, in assay [1], the Ka was found to be 10000 M⁻¹, the Kd was over 100 µM and the dH was -1.1 ± 0.1 kcal/mol.

B3: PLEKHM1‐LIR N637F peptide (biotinylated 9-mer) (peptide, UniProt Q9Y4G2 632-640, looked up)
peptide: EDEWVFVQY
modifications: also: biotinylated
notes: as for B1
With B3, the binding result with 6xHis‐tagged GABARAP‐L2, with 6xHis‐tagged LC3B, in the assay with 6xHis‐tagged LC3C, with 6xHis‐tagged GABARAP‐L1, with 6xHis‐tagged LC3A and with 6xHis‐tagged GABARAP was “binds” throughout.

B4: PLEKHM1‐LIR W635Y peptide (biotinylated 9-mer) (peptide, UniProt Q9Y4G2 632-640, looked up)
peptide: EDEYVNVQY
modifications: also: biotinylated
notes: as for B1
On to B4, for which the binding result in the assay with 6xHis‐tagged GABARAP‐L2, with 6xHis‐tagged LC3B, in the assay with 6xHis‐tagged LC3C, with 6xHis‐tagged GABARAP‐L1, with 6xHis‐tagged LC3A and with 6xHis‐tagged GABARAP was “binds” in each case.

B5: PLEKHM1‐LIR V636G peptide (ITC) (peptide)
chain: PQQEDEWGNVQYPD
modifications: limits taken from the WT ITC peptide (P629-D642); N-terminal GAMG cloning remnant, printed only for WT, left out
In assay [1], B5 displayed a Ka of 20000 M⁻¹, a Kd of 52 µM and a dH of -7.5 ± 0.1 kcal/mol.

B6: PLEKHM1‐LIR N637W peptide (biotinylated 9-mer) (peptide, UniProt Q9Y4G2 632-640, looked up)
peptide: EDEWVWVQY
modifications: also: biotinylated
notes: as for B1
Consider B6, for which the binding result in the assay with 6xHis‐tagged GABARAP‐L2, with 6xHis‐tagged LC3B, in the assay with 6xHis‐tagged LC3C, in the assay with 6xHis‐tagged GABARAP‐L1, with 6xHis‐tagged LC3A and in the assay with 6xHis‐tagged GABARAP was “binds” in each case.

B7: PLEKHM1‐LIR N637C peptide (biotinylated 9-mer) (peptide, UniProt Q9Y4G2 632-640, looked up)
peptide: EDEWVCVQY
modifications: also: biotinylated
notes: as for B1
As to B7, the binding result with 6xHis‐tagged GABARAP‐L2, in the assay with 6xHis‐tagged LC3B, in the assay with 6xHis‐tagged LC3C, with 6xHis‐tagged GABARAP‐L1, with 6xHis‐tagged LC3A and in the assay with 6xHis‐tagged GABARAP was “binds” in each case.

B8: PLEKHM1‐LIR V638I peptide (biotinylated 9-mer) (peptide, UniProt Q9Y4G2 632-640, looked up)
peptide: EDEWVNIQY
modifications: also: biotinylated
notes: as for B1
On to B8, for which the binding result with 6xHis‐tagged GABARAP‐L2, in the assay with 6xHis‐tagged LC3B, with 6xHis‐tagged LC3C, with 6xHis‐tagged GABARAP‐L1, in the assay with 6xHis‐tagged LC3A and with 6xHis‐tagged GABARAP was “binds” in each case.

B9: PLEKHM1‐LIR N637L peptide (biotinylated 9-mer) (peptide, UniProt Q9Y4G2 632-640, looked up)
peptide: EDEWVLVQY
modifications: also: biotinylated
notes: as for B1
Consider B9, for which the binding result in the assay with 6xHis‐tagged GABARAP‐L2, with 6xHis‐tagged LC3B, with 6xHis‐tagged LC3C, with 6xHis‐tagged GABARAP‐L1, in the assay with 6xHis‐tagged LC3A and in the assay with 6xHis‐tagged GABARAP was “binds” throughout.

B10: PLEKHM1‐LIR N637V peptide (biotinylated 9-mer) (peptide, UniProt Q9Y4G2 632-640, looked up)
peptide: EDEWVVVQY
modifications: also: biotinylated
notes: as for B1
With B10, the binding result with 6xHis‐tagged GABARAP‐L2, with 6xHis‐tagged LC3B, with 6xHis‐tagged LC3C, in the assay with 6xHis‐tagged GABARAP‐L1, with 6xHis‐tagged LC3A and with 6xHis‐tagged GABARAP was “binds” in each case.

B11: PLEKHM1‐LIR N637Y peptide (biotinylated 9-mer) (peptide, UniProt Q9Y4G2 632-640, looked up)
peptide: EDEWVYVQY
modifications: also: biotinylated
notes: as for B1
In the case of B11, the binding result with 6xHis‐tagged GABARAP‐L2, with 6xHis‐tagged LC3B, with 6xHis‐tagged LC3C, in the assay with 6xHis‐tagged GABARAP‐L1, in the assay with 6xHis‐tagged LC3A and in the assay with 6xHis‐tagged GABARAP was “binds” throughout.

B12: PLEKHM1‐LIR W635F peptide (biotinylated 9-mer) (peptide, UniProt Q9Y4G2 632-640, looked up)
peptide: EDEFVNVQY
modifications: also: biotinylated
notes: as for B1
B12: the binding result with 6xHis‐tagged GABARAP‐L2, with 6xHis‐tagged LC3B, with 6xHis‐tagged LC3C, with 6xHis‐tagged GABARAP‐L1, in the assay with 6xHis‐tagged LC3A and with 6xHis‐tagged GABARAP was “binds” throughout.

B13: PLEKHM1‐LIR V638L peptide (biotinylated 9-mer) (peptide, UniProt Q9Y4G2 632-640, looked up)
peptide: EDEWVNLQY
modifications: also: biotinylated
notes: as for B1
For B13, the binding result in the assay with 6xHis‐tagged GABARAP‐L2, in the assay with 6xHis‐tagged LC3B, with 6xHis‐tagged LC3C, with 6xHis‐tagged GABARAP‐L1, with 6xHis‐tagged LC3A and with 6xHis‐tagged GABARAP was “binds” each time.
